experiment: yeast display, Sf9 membrane polyspecificity reagent, FACS + sequencing; frameworks hold sequencing errors
How it was run: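 In a synthetic yeast display library (Saccharomyces cerevisiae BJ5465), nanobody expression was induced with galactose for 36–48 hours. FACS gates were set low and high (top ~1%) using anti-HA fluorescence for expression and streptavidin fluorescence for binding of the Sf9 membrane reagent. Each polyreactivity label is drawn from the gate of origin.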

Sequence | polyreactivity (PSR sort gate)
QVQLLESGGGLVQAGGSLRLSCAASGFIFKGNAMGWYRQAPGKERELVAAITNRGGGTYYADSVKGRFTISRDNAKNTVYLLMNSLKPEDTAVYYCAKAYTLPFHPYDYWGQGTQVTVSS | high polyreactivity
QVQLLESGGGLVQAGGSLRLSCAASGFTFWYYAMGWYRQAPGKEREFVASISWNGGRTYYADSVKGRFTISRDNAMNTVYLQMNSLKPEDTAVYYCATRVIYSFTDFKGDYWGQGTQVTVSS | high polyreactivity
QVQLLESGGGLVQAGGSLRLSCAASGGTFRPYAMGWYRQAPGKERELVAAISFTGSTYYADSVKGRFTISRDNAKNTVYLQMNSLKPEDTAVYYCAKDFWYPPRFDYWGQGTQVTVSS | low polyreactivity
QVQLLESGGGLVQAGGSLRLSCAASGIIFCEYAMGWYTQAPGKERELVATITSGDSTNYADSVKGRFTISRDNAKNTVYLQMNSLKPEDTAVYYCIADYAFLPSYDYWGQGTQVTVSS | low polyreactivity
QVQLLESGGGLVQAGGSLRLSCAASGIIVSYAMGWYRQAPGKERELVAAIRYSGDSTYYADSVKGRFTISRDNAKNTVYLQMNSLKPEDTAVYYCAATKGWSRYEYWGQGTQVTVSS | low polyreactivity
QVQLLESGGGLVQAGGSLRLSCAASGLIFAYAMGWYRQAPGKERELVAVISWSGGSTYYADSVKGRFTISRDNAKNTVYLQKNSLKPEDTAVYYCAADYFGNWQLAGGYLGQGTQVTVSS | low polyreactivity
QVQLLESGGGLVQAGGSLRLSCAASGLIFWGYAMGWYRQAPGKERELVAAINATGGRTYYADSVKGRFTISRDNAKNTVYLQMNSLKPEDTAVYYCAAYSGFYDSYDYWGQGTQVTVSS | low polyreactivity
QVQLLESGGGLVQAGGSLRLSCAASGLTFSSYTMGWYRQAPGKERELVAANTRRGTSTYYADSVKGRFTISRDNAKNTVYLQMNSLKPEDTAVYYCNALVYDEYGYYHYYLRNGGYYWGQGTQVTVSS | high polyreactivity
QVQLLESGGGLVQAGGSLRLSCAASGRIFGRYAMGWYRQAPGKERELVAAISSGGRTNYADSVKGRFTISRDNAKNTVYLQMNSLKPEDTAVYYCAARAYTYQAQSNYWGQGTQVTVSS | high polyreactivity
QVQLLESGGGLVQAGGSLRLSCAASGRIFKFKAMGWYRQAPGKERQLVAATWSGGRTSYADSVKGRITISRDNAKYTVYLQMNSLKPEDTAVYYCAARWFDGDWDYWYDYWGQGTQVTVSS | low polyreactivity
QVQLLESGGGLVQAGGSLRLSCAASGRTFAWNAMGWYRQAPGNERELVARLRSSGSTYYADSVKGRFTISRDNAKNTVYLQMNSLKPEDTAVYYGAKKWGWFPVYYWGQGTQVTVSS | high polyreactivity
QVQLLESGGGLVQAGGSLRLSCAASGRTFTRNAMGWNRQAPGKERELVATIRYSTGTTYYADSVKGRFTISRDNAKNTVYLQMNSLKPEDTAVYYCAARVYRYRGYDSWGKGTQVTVSS | high polyreactivity
QVQLLESGGGLVQAGGSLRLSCAASGRTFWYYVMGWYRQAPGKERELFAAITSSGGSTYYADSVKGRFTISRDNAKNSVYLQMNSLKAEDTSVYYCGAAAYTRGYYWGQGTEVTVSS | low polyreactivity
QVQLLESGGGLVQAGGSLRLSCAASGRTFYRTAKGWYRQAPGKERELVASITRSGNTNYADSVKGRFTISRDNAKNTVYLQMNSLKPEDTAVYYCAARPWLRNKYDYWGQGTQVTVSS | high polyreactivity
QVQLLESGGGLVQAGGSLRLSCAASGSIFANNAMGWYRQSPGKEREMVAAIDWSAASTYYADSVKGRFTISRDNAKNTVYLQMNSLKPEDTAVYYWNRRGSGGESYRTTTGALGYWGQGTQVTVSS | low polyreactivity
QVQLLESGGGLVQAGGSLRLSCAASGSIFATYAMGWYRQAPGKERELVAAISSSGARTYYADSVKGRFTISRDNAKNTVYLQMNSLKPEDTAVYYCNADLYSYFWRVRYGLDYWGQGTQVTVSS | high polyreactivity
QVQLLESGGGLVQAGGSLRLSCAASGSIFDPYAMGWYRQAPGKERELVAVINDGGRTTYADSVKGRFTISRDNAKNTVYLQMNRLKPEDTAVYYCAATSYFSRWDLYGYWGQGTQVTVSS | low polyreactivity
QVQLLESGGGLVQAGGSLRLSCAASGSIFGLYAMGWYRQAPGKERELVAAISPRGGSTYYADSVKGRFTISRDNAKNTVYLQMNSLKPEDTAVYYCNRDYIRYALGHDYWGQGTQVTVSS | high polyreactivity
QVQLLESGGGLVQAGGSLRLSCAASGSIFTEYAMGWYRQAPGKERELVAAITYSGGSTYYADSVKGRFTISRDNAKNTVYLQMHSLKPDDTAVYYCNADYRIYVAYYYWGQGTQVTVSS | low polyreactivity
QVQLLESGGGLVQAGGSLRLSCAASGSTFGYYAMGWYRQAPGKERELVAAITRSGSSTYYADSVKGRFTISRDNAKNTVYLQMNSLKPEDTAVYYCAAEARYWIYEYDYWGQGTQVTGSS | high polyreactivity
QVQLLESGGGLVQAGGSLRLSCAASGSTFPRNAMGWYRQAPGKERELVATITSSGGGTYYADSVKGRFTISRDNAKNTVYLQMNSLKPEDTAVDYCNADGPAGDAFDYWGQGTQVTVSS | low polyreactivity
QVQLLESGGGLVQAGGSLRLSCAASGSTIRVNGMGWYRQAPGKERELVAVISWSGGSTYYADSVKGRFTISRDNAKNTVYLQMNSLKPEDTAVYYCNKLIYDEDEYWGQGTQVSVSS | high polyreactivity

Sequence | polyreactivity (PSR sort gate)
QVQLLESGGGLVQAGGSLRLSCAASGYTFKAYAMGWYRQAPGKERELVAAISRGGRTNYADSVKGRFTISRDNAKYTVYLQMNSLKPEDTAVYYCNTQRQLGERFYDRSRQGDYWGHGTQVTVSS | high polyreactivity
QVQLLESGGGLVQAGGSLRLSCAASGYTFRFNAMGWNRQAPGKETEFVAAIDFGGAGTYYADSVKGRFTISRDNAKNTVYLQMNSLKPEDTAVYYCNARDGVTTEFDYWGQVTQVTVSS | low polyreactivity
QVQLLESGGGLVQAGGSLRLSCAAYGSTFGYNDMGWYRQAPGKVRELVAAITRRSGSTYYADSVKGRFTISRDNAKNSVNLQMNSLKPEDTAVYYCAASYHYGDRWPIRMDYWGQGTQVTVSS | low polyreactivity
QVQLLESGGGLVQAGGSLRLTCAASGSTFKRYAMGWYRQAPGKERELVAAITTSGGSTYYADSVKGRFTISRDNAKNTVYLQMNSLEPEDTAVYYCAAVWPGRRTTNYYFPGHGYQYGYWGQGTQVTVSS | high polyreactivity
QVQLLESGGGLVQAGGSLRLTCAASGSTFSPNAMGWYRQAPGKERELVAAITYRGANTYYADSVKGRFTISRDNAKITVYLQMNSLKPEDTAVYYCDAEYAYHHVGFGYWGQGTQVTVSS | low polyreactivity
QVQLLESGGGLVQAGGSVRLSCAASGFTYRYYAMGWYRQEPGKERELVASISFSGTRTYYADSVKGRFTISRDNAKNTVFLQMNSLKPHDTAVDYCNACLYSRYEFDYWGQGSQVTVSS | high polyreactivity
QVQLLESGGGLVQAGGTLRLSCAASGITFTVYTMGWYRQAPGKERELVAAIDSDGITNYADSVKGRFTISRDNAKNTVYLQMNSLKPEDTAVYYCAKQSGRADGVSGFDYWGQGTQVTVSS | low polyreactivity
QVQLLESGGGLVQAGGTLRLSCAASGRISWYNAMGWYRQAPGKERELVAAIRGGGSTHYADSVKGRFTISRDNAKNTVYLQMNSLKPEDTAVYYCAAYLYYPFYWWRDYWGQGTQVTVSS | high polyreactivity
QVQLLESGGGLVQAGRSLRLSCAASGSIFWYAMGWYRQAPGKERELVATITSGASTTYADSVKGRFTISRDNAKNTVYLQMNSLNPEDTAVYYCAKRNYLSYRYDYWGQGTQVNVSS | low polyreactivity
QVQLLESGGGLVQARGSLRLSCAASGRILEGYAMGWYRPAPGKERELVAALSFSTTPTYYADSVKGRFTISRDNAKNTVYLQMYSLKPEDTAVDYCAADSQQSDYDYWGQGSQVTVSS | high polyreactivity
QVQLLESGGGLVQARGSLRLSCAASGRNFVPYVMGWYRQAPGKERELVASISDSDTSTYYADSVKGRFTISRDNAKNTVYLQMNSLKPEDTAVYYCNVDYWGQGTQVTVSS | low polyreactivity
QVQLLESGVGLVQAGGTLRLSCAASGRTFYRNAMGWYRQATGKEREMVAAISQSGGSTYYADSVKGRFTISRDNAKNTVYLQMNSLKPEDTAVYYCAAGNSRRVGMDYWGQGTQVTVSS | high polyreactivity
QVQLLESWGGLVHAGGSLRLSCAASGRIIYRYAMGWSRQAPGNERELVAGISNAGGSTYYADSVKGRFTISRDNAKNTVYLQMNSLKPEDTAVYYCATGPSYRYDKGGGRSRYYYWGQGTQVTVSS | high polyreactivity
QVQLLESWGGLVQAGGSLRLSCAASGRTSTRNAMGWSRQAPGKERELVAAISWSGGRTHYADSVKWRFTISRDNAMNYVYYQMNSLKQEATAVYYCAAAYTGGQYYYSWGQGTQVSVSS | high polyreactivity
QVQLLETGAGLVHAGGSLRLSCAAYGFIFRDYAMGCYRQAPGKERELVAAIYYSGGSTYYADSVKGRFTISRDNAKNTVYLQLNSLKPEDTAVYYCNAVNPYYAPTDRRVGYDYWGQGTQVTVSS | high polyreactivity
QVQLLETGRGLVQAGGSLRLSCASSGSIFFLYAMGWYRQAPGKERELVAAINWRTGRTYYADSVKWRFTISRDNAKNTVYFQMNSLKPEDTEVYYCAARSVPSPERGFYYWGQGTQVTVSS | high polyreactivity
QVQLQDSGGGLVQAGGSLRQNCETSGTIFVLWYMGWYRQAPGKERELVATINDGANTYYADSVKGRFTINRDNANSTVYMKMNSLIPEDTAVYYCAVYAIIVWGLGYWGQGTQVTVSS | high polyreactivity
QVQLQECGGGLVQAGGSLRLSCAASGTFSNSVKWLYCHAPGKEREFVATIGVGGSTNYADSVKGRFTISRDNAKYTVYLQMNSLKPEDTAVYHCAAYGAASNFHYYRGQGTQVTVSS | low polyreactivity
QVQLQECGGGLVQAGGSLRLSCAASGTFSNSVKWLYCQAPGKEREFVATIGVGGSTNYADSVIGRFTISRDNAKNTVYLQMNSRKQEDTAVYHCAAYGAASNFHYYRGQGTQVTVSS | low polyreactivity
QVQLQEGGGGLVQAGVSLRLSCAASGYISYGDVMGWNRQAPGEERELVASIGLDATTNYADSVKGRFTISRDNAKISVYLQMNSLKPEATAVYYCAADVGSGVLCGYWGQGTQMTVSS | high polyreactivity
QVQLQEIGGSLVQAGGSLRLSGAASGNILVLPPGQVSPGAERELDATITGGSITYYADSVKGRFTISRDNAKNTVYLQMNSLKPEDTAVYYCAAVSLRKSYGYNYWGQGTLVTVSS | high polyreactivity

Reference: the nanobody polyreactivity screen of Harvey et al. (2022)
